Data taken from patent US20220119534A1 (DRAGONFLY THERAPEUTICS, published 2022).
Numbering of substitutions follows the chain as printed. In names and notes the source's numbering stands. Several values for one entry are separate records, joined by “and”; a condition that tells them apart may be missing. Identical values can stand only once.

Key:
[1] = molecular target: T1, Human CLEC12A-His (recombinant, K244 WT) (human, UniProt Q5QGZ9 65-265); test: SPR, two-state fit (kd1); after pH 5.0, 40C, 2 wks
T1 construct: Made in house (Dragonfly Tx); also called hCLEC12A; hCLEC12A-His; not shown: His tag
T1 sequence: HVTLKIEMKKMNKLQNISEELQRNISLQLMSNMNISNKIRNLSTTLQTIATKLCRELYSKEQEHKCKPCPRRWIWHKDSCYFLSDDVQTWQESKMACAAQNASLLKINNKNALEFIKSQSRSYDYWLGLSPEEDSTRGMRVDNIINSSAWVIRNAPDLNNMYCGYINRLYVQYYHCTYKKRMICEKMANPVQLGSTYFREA

[2] = molecular target: T1, Human CLEC12A-His (recombinant, K244 WT); test: SPR 37C, two-state fit (ka1), average
[3] = molecular target: T2, Human CLEC12A expressed on cells (Ba/F3-hCLEC12A, PL21, HL60) (human, UniProt Q5QGZ9 1-265); test: cell-based or functional assay
T2 sequence: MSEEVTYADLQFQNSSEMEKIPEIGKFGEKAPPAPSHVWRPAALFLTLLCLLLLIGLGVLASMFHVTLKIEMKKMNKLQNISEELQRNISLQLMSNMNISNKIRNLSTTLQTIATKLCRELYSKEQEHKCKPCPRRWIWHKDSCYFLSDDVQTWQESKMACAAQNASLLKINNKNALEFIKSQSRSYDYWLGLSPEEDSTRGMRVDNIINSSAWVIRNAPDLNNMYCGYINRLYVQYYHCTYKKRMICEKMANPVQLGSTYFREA

[4] = molecular target: T1, Human CLEC12A-His (recombinant, K244 WT); test: SPR, two-state fit; after pH 8, 40C, 2 wks
[5] = molecular target: T2, Human CLEC12A expressed on cells …; test: cell-based or functional assay; remark: listed apart in the source
[6] = molecular target: T1, Human CLEC12A-His (recombinant, K244 WT); test: SPR, two-state fit; control sample
[7] = molecular target: T3, Human CD16a V158 (FcγRIIIa V158) (human, UniProt P08637 17-208, biotinylated); test: SPR; after forced oxidation
T3 construct: Bought recombinant receptor; also called hCD16aV; hFcγRIIIa V158
T3 sequence (P08637 17-208 F176V limits assumed): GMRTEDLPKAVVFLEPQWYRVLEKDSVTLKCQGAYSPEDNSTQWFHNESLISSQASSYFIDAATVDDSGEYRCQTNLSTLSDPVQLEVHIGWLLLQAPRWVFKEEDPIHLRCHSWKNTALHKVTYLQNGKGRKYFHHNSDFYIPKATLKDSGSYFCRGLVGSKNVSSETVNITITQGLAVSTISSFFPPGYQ

[8] = molecular target: T4, mFc-hNKG2D (recombinant mFc-tagged human NKG2D dimer) (human, UniProt P26718 73-216); test: SPR; after forced oxidation
T4 construct: extracellular domain; Made in house; not shown: mouse Fc tag
T4 sequence (looked up): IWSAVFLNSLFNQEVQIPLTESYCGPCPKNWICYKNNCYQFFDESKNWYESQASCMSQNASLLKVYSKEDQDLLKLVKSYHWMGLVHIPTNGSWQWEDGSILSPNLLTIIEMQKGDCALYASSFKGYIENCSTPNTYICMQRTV

[9] = molecular target: T3, Human CD16a V158 (FcγRIIIa V158); test: SPR; control sample
[10] = molecular target: T4, mFc-hNKG2D (recombinant mFc-tagged …); test: SPR; control sample
[11] = molecular target: T3, Human CD16a V158 (FcγRIIIa V158); test: SPR; control sample; remark: listed apart in the source
[12] = molecular target: T4, mFc-hNKG2D (recombinant mFc-tagged …); test: SPR; control sample; remark: listed apart in the source
Human CD16b (FcγRIIIb) = molecular target: T5, Human CD16b (FcγRIIIb) (human, UniProt O75015 17-200, limits assumed, biotinylated); test: SPR, summary of FcγR affinities (n = 3)
T5 construct: Bought recombinant receptor; also called hFcγRIIIb; CD16b (FcγR3b)
T5 sequence (O75015 17-200 limits assumed): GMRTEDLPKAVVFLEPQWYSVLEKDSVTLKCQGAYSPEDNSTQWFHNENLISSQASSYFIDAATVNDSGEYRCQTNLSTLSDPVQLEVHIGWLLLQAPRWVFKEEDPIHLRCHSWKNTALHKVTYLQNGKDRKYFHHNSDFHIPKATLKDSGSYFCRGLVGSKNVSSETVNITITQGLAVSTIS

Cynomolgus CD16 = molecular target: T6, Cynomolgus CD16 (cynomolgus monkey, UniProt Q8SPW2 17-208, biotinylated); test: SPR, steady state fit
T6 construct: Bought recombinant receptor; also called cFcγRIII; Cynomolgus FcγRIII
T6 sequence (Q8SPW2 17-208 limits assumed): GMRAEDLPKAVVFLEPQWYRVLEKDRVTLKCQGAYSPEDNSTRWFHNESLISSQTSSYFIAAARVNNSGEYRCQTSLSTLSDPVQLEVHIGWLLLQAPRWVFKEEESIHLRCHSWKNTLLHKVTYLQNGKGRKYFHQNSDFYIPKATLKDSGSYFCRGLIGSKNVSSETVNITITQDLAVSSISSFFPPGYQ

Human CD16a F158 = molecular target: T7, Human CD16a F158 (human, UniProt P08637 17-208, biotinylated); test: SPR, steady state fit
T7 construct: Bought recombinant receptor; also called hFcγRIIIa F158
T7 sequence (P08637 17-208 limits assumed): as the sequence (P08637 17-208 F176V limits assumed) above, with V160F counted along it

Human CLEC12A-His = molecular target: T8, Human CLEC12A-His (human, UniProt Q5QGZ9 65-265); test: SPR; taken as the sample after forced oxidation (0.02% H2O2, 24 h)
T8 construct: Recombinant soluble protein made in house; also called hCLEC12A-His; hCLEC12A; not shown: His tag
T8 sequence: T1 sequence

[13] = molecular target: T9, recombinant human CLEC12A-His (human, UniProt Q5QGZ9 65-265); test: SPR 37C
T9 construct: also called hCLEC12A-His; hCLEC12A
T9 sequence: T1 sequence

recombinant human CD32b = molecular target: T10, recombinant human CD32b (human, UniProt P31994 46-217, limits assumed, biotinylated); test: SPR 25C, steady state
T10 construct: also called FcγRIIb
T10 sequence (looked up): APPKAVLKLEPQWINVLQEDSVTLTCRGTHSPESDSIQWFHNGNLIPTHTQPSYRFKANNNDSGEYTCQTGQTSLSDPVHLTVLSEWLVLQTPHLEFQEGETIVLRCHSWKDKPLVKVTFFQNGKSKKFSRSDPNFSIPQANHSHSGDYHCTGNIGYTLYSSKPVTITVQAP

[14] = molecular target: T9, recombinant human CLEC12A-His; test: SPR

B1: AB0089 TriNKET (bispecific antibody, human IgG1, kappa)
chain: QLQLQESGPGLVKPSETLSLTCTVSGFSLTNYGLHWIRQPPGKCLEWIGVIWVGGATDYNPSLKSRVTISVDTSKNQFSLKLSSVQAADTAVYYCAKGDYGDTLDYWGQGTLVTVSSGGGGSGGGGSGGGGSGGGGSDIQMTQSPSSLSASVGDRVTITCHASQNINFWLSWYQQKPGKAPKLLIYEASNLHTGVPSRFSGSGSGTDFTLTISSLQPEDFATYYCQQSHSYPLTFGCGTKLEIKGSDKTHTCPPCPAPELLGGPSVFLFPPKPKDTLMISRTPEVTCVVVDVSHEDPEVKFNWYVDGVEVHNAKTKPREEQYNSTYRVVSVLTVLHQDWLNGKEYKCKVSNKALPAPIEKTISKAKGQPREPRVYTLPPCRDELTKNQVSLTCLVKGFYPSDIAVEWESNGQPENNYKTTPPVLVSDGSFTLYSKLTVDKSRWQQGNVFSCSVMHEALHNHYTQKSLSLSPG
heavy: EVQLVESGGGLVKPGGSLRLSCAASGFTFSSYSMNWVRQAPGKGLEWVSSISSSSSYIYYADSVKGRFTISRDNAKNSLYLQMNSLRAEDTAVYYCARGAPIGAAAGWFDPWGQGTLVTVSSASTKGPSVFPLAPSSKSTSGGTAALGCLVKDYFPEPVTVSWNSGALTSGVHTFPAVLQSSGLYSLSSVVTVPSSSLGTQTYICNVNHKPSNTKVDKKVEPKSCDKTHTCPPCPAPELLGGPSVFLFPPKPKDTLMISRTPEVTCVVVDVSHEDPEVKFNWYVDGVEVHNAKTKPREEQYNSTYRVVSVLTVLHQDWLNGKEYKCKVSNKALPAPIEKTISKAKGQPREPQVCTLPPSRDELTENQVSLTCLVKGFYPSDIAVEWESNGQPENNYKTTPPVLDSDGSFFLYSWLTVDKSRWQQGNVFSCSVMHEALHNHYTQKSLSLSPG
light: DIQMTQSPSSVSASVGDRVTITCRASQGISSWLAWYQQKPGKAPKLLIYAASSLQSGVPSRFSGSGSGTDFTLTISSLQPEDFATYYCQQGVSFPRTFGGGTKVEIKRTVAAPSVFIFPPSDEQLKSGTASVVCLLNNFYPREAKVQWKVDNALQSGNSQESVTEQDSKDSTYSLSSTLTLSKADYEKHKVYACEVTHQGLSSPVTKSFNRGEC
notes: F3' format heterodimer of three chains; human IgG1 Fc with EW-RVT and Y349C/S354C mutations; also called AB0089 Lot AB0089-002; CLEC12A TriNKET AB0089
[1]
  koff: 0.0427 s⁻¹
[2]
  kon: 1.04e+07 M⁻¹ s⁻¹
[3]
  EC50, primary NK mediated cytotoxic killing of PL21 cells: 0.35 nM
[4]
  Kd: 0.9 nM
[5]
  EC50, rested NK cell lysis of PL21 cells (mean of six donors): 0.25 nM
[6]
  Kd: 0.7 nM
[7]
  Kd: 320 nM
  koff: 0.0277 s⁻¹
  kon: 86500 M⁻¹ s⁻¹
[8]
  Kd: 762 nM
  koff: 0.13 s⁻¹
  kon: 171000 M⁻¹ s⁻¹
[9]
  Kd: 323 nM
  koff: 0.0276 s⁻¹
  kon: 85300 M⁻¹ s⁻¹
[10]
  Kd: 772 nM
  koff: 0.135 s⁻¹
  kon: 175000 M⁻¹ s⁻¹
[11]
  Kd: 333 nM
  koff: 0.0277 s⁻¹
  kon: 83100 M⁻¹ s⁻¹
[12]
  Kd: 881 nM
  koff: 0.143 s⁻¹
  kon: 162000 M⁻¹ s⁻¹
Human CD16b (FcγRIIIb)
  Kd: 8850 nM

B2: AB0192 TriNKET (other)
chain: EVQLVESGGGVVQPGGSLRLSCAASGFTFNAFGMHWVRQAPGKCLEWVAFISSGSTSIYYANTVKGRFTISRDNSKNTLYLQMNSLRAEDTAVYYCARDGYPTGGAMDYWGQGTSVTVSSGGGGSGGGGSGGGGSGGGGSDIQMTQSPSSLSASVGDRVTITCKASQDIYNYLSWFQQKPGKAPKPLIYRANILVSGVPSRFSGSGSGQDYTFTISSLQPEDIATYYCLQFDAFPFTFGCGTKLEIKGSDKTHTCPPCPAPELLGGPSVFLFPPKPKDTLMISRTPEVTCVVVDVSHEDPEVKFNWYVDGVEVHNAKTKPREEQYNSTYRVVSVLTVLHQDWLNGKEYKCKVSNKALPAPIEKTISKAKGQPREPRVYTLPPCRDELTKNQVSLTCLVKGFYPSDIAVEWESNGQPENNYKTTPPVLVSDGSFTLYSKLTVDKSRWQQGNVFSCSVMHEALHNHYTQKSLSLSPG
heavy: B1 heavy
light: B1 light
notes: the condition stands under assay; also called AB0192 Lot AB0192-005
Cynomolgus CD16
  Kd: 203 nM and 205 nM and 204 nM
Human CD16a F158
  Kd: 773 nM and 634 nM and 693 nM and 620 nM
Human CLEC12A-His
  Kd: 1.71 nM
  koff: 0.00132 s⁻¹
  kon: 775000 M⁻¹ s⁻¹

B3: F3'-1602 TriNKET (other)
chain: B1 chain with V53S, A56K, V71K, G98Y, G101D, T103S, D207R, F220I
heavy: B1 heavy
light: B1 light
notes: CLEC12A scFv-Fc, NKG2D A49MI Fab-Fc, human IgG1 Fc; also called AB0237
[13]
  Kd: 0.58 nM and 0.59 nM and 0.57 nM and 0.6 nM
  koff: 0.000494 s⁻¹ and 0.000489 s⁻¹ and 0.000499 s⁻¹
  kon: 854000 M⁻¹ s⁻¹ and 833000 M⁻¹ s⁻¹ and 863000 M⁻¹ s⁻¹ and 826000 M⁻¹ s⁻¹
Recombinant human CD32b
  Kd: 7200 nM and 6100 nM and 6900 nM
[14]
  Kd: 0.8 nM
